Article PMC4557304

Columns and labels:
Assay in all cases: EMSA; with POLγB; 10 mM Mg2+, 3 mM dCTP, 0.3 mM ddGTP; EMSA: 15 µl, 10 fmol DNA, 450 fmol POLγA, 1.8 pmol POLγB where indicated; 20 mM Tris-HCl pH 7.5, 1 mM DTT, 0.1 mg/ml BSA, 10 mM MgCl2, 10% glycerol, 3 mM dCTP
POLγA H277L;POLγB = POLγA H277L;POLγB (human?;human?, UniProt P54098;Q9UHN1 26-1239;25-485, H277L|)
POLγA G303R;POLγB = POLγA G303R;POLγB (human?;human?, UniProt P54098;Q9UHN1 26-1239;25-485, G303R|)
POLγA R275Q;POLγB = POLγA R275Q;POLγB (human?;human?, UniProt P54098;Q9UHN1 26-1239;25-485, R275Q|)
POLγA S305R;POLγB = POLγA S305R;POLγB (human?;human?, UniProt P54098;Q9UHN1 26-1239;25-485, S305R|)
POLγA L304R;POLγB = POLγA L304R;POLγB (human?;human?, UniProt P54098;Q9UHN1 26-1239;25-485, L304R|)
POLγA R232H;POLγB = POLγA R232H;POLγB (human?;human?, UniProt P54098;Q9UHN1 26-1239;25-485, R232H|)
POLγA G268A;POLγB = POLγA G268A;POLγB (human?;human?, UniProt P54098;Q9UHN1 26-1239;25-485, G268A|)

Measured: binding result

POLγA G303R;POLγB, sequence (P54098 26-1239 G303R, chain 1 of 2): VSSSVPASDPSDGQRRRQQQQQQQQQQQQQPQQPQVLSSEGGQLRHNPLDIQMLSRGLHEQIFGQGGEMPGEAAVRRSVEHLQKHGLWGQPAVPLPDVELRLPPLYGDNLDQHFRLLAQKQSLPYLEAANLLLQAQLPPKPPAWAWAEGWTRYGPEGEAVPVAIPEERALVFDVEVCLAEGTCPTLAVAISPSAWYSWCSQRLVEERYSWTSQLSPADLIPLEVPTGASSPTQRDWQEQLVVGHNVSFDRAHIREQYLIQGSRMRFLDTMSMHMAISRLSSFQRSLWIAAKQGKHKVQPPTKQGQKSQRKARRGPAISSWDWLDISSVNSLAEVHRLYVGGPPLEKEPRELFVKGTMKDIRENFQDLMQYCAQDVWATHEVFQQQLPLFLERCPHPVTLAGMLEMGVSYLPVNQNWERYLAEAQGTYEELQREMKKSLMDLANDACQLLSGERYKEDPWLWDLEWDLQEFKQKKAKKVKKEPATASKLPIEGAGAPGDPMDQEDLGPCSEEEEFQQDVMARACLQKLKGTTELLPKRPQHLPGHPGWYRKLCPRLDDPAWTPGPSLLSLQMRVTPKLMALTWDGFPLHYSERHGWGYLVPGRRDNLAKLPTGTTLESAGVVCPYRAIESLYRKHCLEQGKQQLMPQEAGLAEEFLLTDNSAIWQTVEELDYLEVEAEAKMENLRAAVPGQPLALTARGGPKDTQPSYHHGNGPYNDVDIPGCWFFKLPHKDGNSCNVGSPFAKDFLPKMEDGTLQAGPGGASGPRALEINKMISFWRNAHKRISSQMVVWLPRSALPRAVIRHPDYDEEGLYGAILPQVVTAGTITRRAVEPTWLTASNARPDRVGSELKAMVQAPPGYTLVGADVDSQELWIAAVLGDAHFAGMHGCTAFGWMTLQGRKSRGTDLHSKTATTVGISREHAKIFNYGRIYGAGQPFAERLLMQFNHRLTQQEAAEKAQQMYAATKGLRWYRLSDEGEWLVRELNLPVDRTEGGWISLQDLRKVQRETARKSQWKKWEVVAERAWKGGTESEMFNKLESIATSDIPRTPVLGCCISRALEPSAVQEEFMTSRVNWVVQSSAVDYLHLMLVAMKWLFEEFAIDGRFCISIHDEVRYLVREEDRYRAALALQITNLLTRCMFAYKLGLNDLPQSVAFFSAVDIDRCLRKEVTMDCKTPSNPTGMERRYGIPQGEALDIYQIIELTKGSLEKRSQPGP
POLγA G303R;POLγB, sequence (Q9UHN1 25-485, chain 2 of 2): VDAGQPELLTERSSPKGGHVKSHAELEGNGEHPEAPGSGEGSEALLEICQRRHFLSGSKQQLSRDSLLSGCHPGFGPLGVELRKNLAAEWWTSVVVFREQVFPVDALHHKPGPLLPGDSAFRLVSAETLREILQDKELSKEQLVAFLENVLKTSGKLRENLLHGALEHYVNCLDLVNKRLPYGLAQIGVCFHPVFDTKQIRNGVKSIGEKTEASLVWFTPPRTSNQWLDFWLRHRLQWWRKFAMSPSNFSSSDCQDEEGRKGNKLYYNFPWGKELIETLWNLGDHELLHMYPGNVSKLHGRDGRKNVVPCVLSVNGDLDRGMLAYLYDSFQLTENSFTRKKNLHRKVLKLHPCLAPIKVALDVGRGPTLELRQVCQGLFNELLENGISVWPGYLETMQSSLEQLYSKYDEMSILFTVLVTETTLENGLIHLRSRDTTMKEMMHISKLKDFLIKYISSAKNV
POLγA R232H;POLγB, sequence (P54098 26-1239 R232H, chain 1 of 2): as the sequence (P54098 26-1239 G303R, chain 1 of 2) above, with R207H, R278G counted along it
POLγA R232H;POLγB, sequence (Q9UHN1 25-485, chain 2 of 2): as the sequence (Q9UHN1 25-485, chain 2 of 2) above
POLγA H277L;POLγB, sequence (P54098 26-1239 H277L, chain 1 of 2): as the sequence (P54098 26-1239 G303R, chain 1 of 2) above, with H252L, R278G counted along it
POLγA H277L;POLγB, sequence (Q9UHN1 25-485, chain 2 of 2): as the sequence (Q9UHN1 25-485, chain 2 of 2) above
POLγA L304R;POLγB, sequence (P54098 26-1239 L304R, chain 1 of 2): as the sequence (P54098 26-1239 G303R, chain 1 of 2) above, with R278G, L279R counted along it
POLγA L304R;POLγB, sequence (Q9UHN1 25-485, chain 2 of 2): as the sequence (Q9UHN1 25-485, chain 2 of 2) above
POLγA S305R;POLγB, sequence (P54098 26-1239 S305R, chain 1 of 2): as the sequence (P54098 26-1239 G303R, chain 1 of 2) above, with R278G, S280R counted along it
POLγA S305R;POLγB, sequence (Q9UHN1 25-485, chain 2 of 2): as the sequence (Q9UHN1 25-485, chain 2 of 2) above
POLγA G268A;POLγB, sequence (P54098 26-1239 G268A, chain 1 of 2): as the sequence (P54098 26-1239 G303R, chain 1 of 2) above, with G243A, R278G counted along it
POLγA G268A;POLγB, sequence (Q9UHN1 25-485, chain 2 of 2): as the sequence (Q9UHN1 25-485, chain 2 of 2) above
POLγA R275Q;POLγB, sequence (P54098 26-1239 R275Q, chain 1 of 2): as the sequence (P54098 26-1239 G303R, chain 1 of 2) above, with R250Q, R278G counted along it
POLγA R275Q;POLγB, sequence (Q9UHN1 25-485, chain 2 of 2): as the sequence (Q9UHN1 25-485, chain 2 of 2) above

B1: primed DNA template (20/35-mer) (dsDNA)
DNA 1: CGGTCGAGTCTAGAGGAGCC
DNA 2: GACTACGTCTATCCGGGCTCCTCTAGACTCGACCG
binds: all assays above
